Measured values as given in US20140314790A1 (ALBERT EINSTEIN COLLEGE OF MEDICINE OF YESHIVA UNIVERSITY, published 2014).

Columns and labels:
[1] = molecular target: T1, β-CTF (C-terminal fragment of APP made by β-secretase cleavage) (UniProt P05067 672-770); test: α-Flag IP from HeLa/APP cells incubated with N3-2A-F, Western blot for APP-CTFs
T1 construct: domain: β-CTF; also called APP-CTF

[2] = molecular target: T2, amyloid precursor protein (APP), transfected into HeLa or HEK293 cells (UniProt P05067 18-770); test: α-Flag IP from HeLa/APP cells incubated with Flagged peptide, Western blot for APP
T2 construct: whole, on cells; Scheinfeld et al, 2002)'; also called mature APP; HeLa-APP
T2 sequence (P05067 18-770): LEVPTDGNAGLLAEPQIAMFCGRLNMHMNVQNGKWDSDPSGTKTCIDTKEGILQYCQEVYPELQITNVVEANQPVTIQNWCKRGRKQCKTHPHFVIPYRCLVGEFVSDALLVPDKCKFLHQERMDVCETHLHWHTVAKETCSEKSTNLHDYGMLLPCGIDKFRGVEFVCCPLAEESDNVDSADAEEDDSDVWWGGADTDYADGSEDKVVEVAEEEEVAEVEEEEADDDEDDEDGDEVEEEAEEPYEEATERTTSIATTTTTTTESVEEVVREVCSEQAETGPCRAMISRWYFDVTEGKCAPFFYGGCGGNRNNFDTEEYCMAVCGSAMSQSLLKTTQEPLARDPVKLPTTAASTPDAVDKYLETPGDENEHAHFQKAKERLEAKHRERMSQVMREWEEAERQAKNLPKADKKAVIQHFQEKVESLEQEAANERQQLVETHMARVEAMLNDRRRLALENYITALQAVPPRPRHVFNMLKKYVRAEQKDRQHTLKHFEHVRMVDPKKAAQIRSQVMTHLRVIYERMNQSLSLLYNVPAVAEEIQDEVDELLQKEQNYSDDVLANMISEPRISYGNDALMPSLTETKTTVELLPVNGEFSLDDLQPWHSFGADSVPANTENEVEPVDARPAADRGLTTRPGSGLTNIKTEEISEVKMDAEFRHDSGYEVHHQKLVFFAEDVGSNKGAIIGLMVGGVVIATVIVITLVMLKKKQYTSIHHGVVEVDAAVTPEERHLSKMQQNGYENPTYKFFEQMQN

T1 sequence (P05067 672-770 limits assumed): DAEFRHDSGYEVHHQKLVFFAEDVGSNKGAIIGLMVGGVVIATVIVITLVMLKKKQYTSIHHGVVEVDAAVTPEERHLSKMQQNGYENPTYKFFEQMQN

binding result [1] | binding result [2] | Binder
no binding (tested: 40 µM) | – | DAVYYCGLKY (peptide, not shown: small tags and cut ends, also called BRI2-derived peptide) [N3-2A fused to a C-terminal Flag epitope (N3-2A-F)]
– | no binding (tested: 40 µM) | DDVAYCGLKY (peptide, not shown: small tags and cut ends) [N3-4A-F (single amino acid N3 mutant N3-4A with Flag epitope)]
